Assay results: patent publication US20260183437A1, “VHH ANTIBODY CONJUGATES WITH HETEROARYL CHELATORS” (ABDERA THERAPEUTICS INC., priority 2022, published 2026)

What was measured:
Assay in all cases: ABC (Antibody Binding Capacity) assay, receptor density
Format in all cases: cell-based
H82 = tested on: H82
Experimental: (§1) In order to test efficacy of the immunoconjugate binding with respect to target density receptor density was measured on target positive cell lines. Target density was measured using the ABC (Antibody Binding Capacity) assay. Cancer cells expressing the target of interest, as well as a negative control cell line, were harvested with cell dissociation buffer, seeded at about 5×10^4 cells per well into 96-well V bottom plate (Sarstedt 82.1583.001). Cells were tested for receptor expression using QuantiBRITE PE beads (BD Cat #340495) and a PE-conjugated anti-hu IgG (Biolegend clone HP6017) following the manufacturers' instructions. In brief, VHH-Fc and isotype control antibodies were prepared at suitable saturating concentrations based on previous experiments. Antibody sample dilutions were incubated with the panel of cell lines on ice for 1 hour. Cells were washed twice with 1% FBS in 1×PBS (FACS buffer), centrifuged at 400 G for 4 min. Cells were then incubated with 4 μg/mL mouse PE-conjugated anti-hu and DAPI (1:1000) for 30 minutes on ice. Cells were washed twice with FACS buffer, centrifuged at 400 G for 4 minutes and resuspended in FACS buffer. Fluorescence intensity on the PE channel was measured on the iQue Screener platform, and data were processed with ForeCyt software. The amount of PE signal generated from the different primary antibody was then fit to a standard curve based off of known PE molecules/Quantibrite bead samples to determine the number of antibody-binding sites per cell. Relative antibody binding sites correlate to the number of antigens or receptors on cell surface.

HEK-DLL3 = tested on: HEK-DLL3
Experimental: as §1

SHP-77 = tested on: SHP-77
Experimental: as §1

B1: Rovalpituzumab: control antibody for DLL3 binding (Creative Biolabs #TAB-216CL) (antibody, chains of the INN, looked up, V domains shown)
VH: QVQLVQSGAEVKKPGASVKVSCKASGYTFTNYGMNWVRQAPGQGLEWMGWINTYTGEPTYADDFKGRVTMTTDTSTSTAYMELRSLRSDDTAVYYCARIGDSSPSDYWGQGTLVTVSS
VL: EIVMTQSPATLSVSPGERATLSCKASQSVSNDVVWYQQKPGQAPRLLIYYASNRYTGIPARFSGSGSGTEFTLTISSLQSEDFAVYYCQQDYTSPWTFGQGTKLEIK
- Estimated number of epitopes/cell (H82): 936 epitopes/cell
- Estimated number of epitopes/cell (HEK-DLL3): 1679 epitopes/cell
- Estimated number of epitopes/cell (SHP-77): 969 epitopes/cell
